Test results taken from patent publication US20210277122A1 (SHANGHAI HENLIUS BIOTECH, published 2021).

B1: chimeric anti-PD-1 antibody c1G4 (antibody, human IgG4 S228P, kappa, V domains shown)
VH: EVMLVESGGGLVKPGGSLKLSCAASGFTFSNYGMSWVRQTPEKSLEWVATISGGGSNIYYPDSVKGRFTISRDNAKNNLFLQMSGLRSEDTALYYCVSYYYGIDFWGQGTSVTVSS
VL: DIVMTQSHKFMSTSVGDRVSITCKASQDVTTAVAWYQQKPGQSPKLLIYWASTRHTGVPDRFTGSGSGTDYTLTINSVQAEDLALYYCQQHYTIPWTFGGGTKLEIKR
notes: also called chimeric c1G4
B2: referenced anti-PD-1 antibody (antibody, human IgG4 S228P, kappa, V domains shown)
VH: QVQLVESGGGVVQPGRSLRLDCKASGITFSNSGMHWVRQAPGKGLEWVAVIWYDGSKRYYADSVKGRFTISRDNSKNTLFLQMNSLRAEDTAVYYCATNDDYWGQGTLVTVSS
VL: EIVLTQSPATLSLSPGERATLSCRASQSVSSYLAWYQQKPGQAPRLLIYDASNRATGIPARFSGSGSGTDFTLTISSLEPEDFAVYYCQQSSNWPRTFGQGTKVEIKR
B3: humanized anti-PD-1 antibody 1G4 (h1G4) (antibody, human IgG4 S228P, kappa, V domains shown)
VH: QVQLVESGGGLVKPGGSLRLSCAASGFTFSNYGMSWIRQAPGKGLEWVSTISGGGSNIYYADSVKGRFTISRDNAKNSLYLQMNSLRAEDTAVYYCVSYYYGIDFWGQGTSVTVSS
VL: DIQMTQSPSSLSASVGDRVTITCKASQDVTTAVAWYQQKPGKAPKLLIYWASTRHTGVPSRFSGSGSGTDFTLTISSLQPEDFATYYCQQHYTIPWTFGGGTKLEIKR
notes: CDRs of c1G4 grafted onto IGKV1-39*01 and IGHV3-11*04; also called HLX10; humanized h1G4

Assays:
[1] = biological target: T1, PD-1-His (purified recombinant 6xHis-tagged PD-1_ECD) (UniProt Q15116 25-170); test: SPR, affinity improvement against anti-PD-1 ref
T1 construct: extracellular domain
T1 sequence (Q15116 other isoform, or with tags, fused parts or gaps limits assumed): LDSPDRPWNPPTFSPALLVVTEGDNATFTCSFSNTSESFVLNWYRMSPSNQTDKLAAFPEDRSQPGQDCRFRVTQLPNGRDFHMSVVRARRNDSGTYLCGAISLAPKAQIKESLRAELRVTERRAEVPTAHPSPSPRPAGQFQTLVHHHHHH

[2] = biological target: T1, PD-1-His (purified recombinant …); test: ELISA on PD-1-His, anti-human IgG Fc-HRP, OD450
[3] = biological target: T1, PD-1-His (purified recombinant …); test: SPR, full-length IgG, PD-1-His analyte (method of Example 3)
[4] = biological target: T1, PD-1-His (purified recombinant …); test: SPR, affinity improvement against the referenced anti-PD-1 antibody
[5] = biological target: T1, PD-1-His (purified recombinant …); test: SPR, antibody captured on anti-human IgG Fc, PD-1-His analyte, 25 C, 1:1 Langmuir
[6] = biological target: T1, PD-1-His (purified recombinant …); test: blocking ELISA: antibody dilutions mixed with PD-L1-AP, added to PD-1-His coated wells, OD405
[7] = biological target: T2, recombinant human PD-1 at the cell surface (PD-1 transfected CHO-S cells) (human, UniProt Q15116 25-288); test: blocking flow cytometry: PD-1 expressing CHO-S cells incubated with antibody, washed, then biotin-labeled PD-L1-Fc and streptavidin-PE, MFI
T2 construct: whole, on cells; Also used as the target in the mixed leukocyte reaction rows, where it is human PD-1 on T cells; also called PD-1 expressing CHO-S cells; PD-1 expressed CHO-S cells
T2 sequence (Q15116 25-288): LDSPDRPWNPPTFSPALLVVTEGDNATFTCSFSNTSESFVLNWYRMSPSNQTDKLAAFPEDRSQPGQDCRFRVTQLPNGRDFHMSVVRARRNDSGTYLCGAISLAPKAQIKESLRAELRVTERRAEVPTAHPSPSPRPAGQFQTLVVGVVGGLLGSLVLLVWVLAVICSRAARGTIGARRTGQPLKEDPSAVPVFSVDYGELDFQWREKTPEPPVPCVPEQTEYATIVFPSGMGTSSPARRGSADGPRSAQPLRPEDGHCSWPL

[8] = biological target: T1, PD-1-His (purified recombinant …); test: competition ELISA: antibody dilutions pre-mixed with PD-1-His (0.1 µg/ml), then added to a plate coated with the referenced anti-PD-1 (4 µg/ml); anti-His-HRP, OD450
[9] = biological target: T1, PD-1-His (purified recombinant …); test: competition ELISA: PD-1-His (0.1 µg/ml) first bound to a plate coated with the referenced anti-PD-1 (4 µg/ml), antibody dilutions added afterwards; anti-His-HRP, OD450
Human PD-1 = biological target: T3, Human PD-1 (human); test: ELISA on immobilized human PD-1/Fc (9 ng per well), peroxidase-labeled anti-human IgG F(ab)'2, OD450nm
T3 construct: PD-1 part of a purchased recombinant PD-1/Fc fusion protein; immobilized at 9 ng per well; also called recombinant human PD-1 fusion protein; PD-1/Fc (Sino Biological Inc.)
T3 sequence (Q15116 25-170): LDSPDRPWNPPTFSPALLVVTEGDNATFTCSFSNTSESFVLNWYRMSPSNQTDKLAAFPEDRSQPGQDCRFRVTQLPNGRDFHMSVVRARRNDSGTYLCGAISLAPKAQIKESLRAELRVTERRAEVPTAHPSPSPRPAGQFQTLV

Cynomolgus PD-1 = biological target: T4, Cynomolgus PD-1 (cynomolgus monkey); test: ELISA on immobilized cynomolgus monkey PD-1/Fc (9 ng per well), peroxidase-labeled anti-human IgG F(ab)'2, OD450nm
T4 construct: PD-1 part of a purchased recombinant PD-1/Fc fusion protein; immobilized at 9 ng per well; also called recombinant cynomolgus monkey PD-1 fusion protein; PD-1/Fc (Sino Biological Inc.)

[10] = biological target: T5, PD-1 on activated human T cells; test: flow cytometry on PHA-activated human T cells, FITC-labeled anti-human IgG Fcγ, MFI
T5 construct: the sheet names no target
T5 sequence (chain, as listed by the source limits assumed): as the sequence (Q15116 25-288) above

| Binder | Improvement [1] | EC50 (read off the curve) [2] | Kd [3] | koff [3] | kon [3] | Improvement [4] | Kd [5] | koff [5] | kon [5] | IC50 (read off the curve) [6] | IC50 (read off the curve) [7] | IC50 (read off the curve) [8] | IC50 (read off the curve) [9] | EC50 (read off the curve) (Human PD-1) | EC50 (read off the curve) (Cynomolgus PD-1) | EC50 (read off the curve) [10] |
| --- | --- | --- | --- | --- | --- | --- | --- | --- | --- | --- | --- | --- | --- | --- | --- | --- |
| B1 | 4.07 fold | ~0.04 µg/mL | 0.325 nM | 0.000177 s⁻¹ | 550000 M⁻¹ s⁻¹ | 9.38 fold | 0.434 nM | 0.000104 s⁻¹ | 244000 M⁻¹ s⁻¹ | ~0.4 µg/mL | ~0.6 µg/mL | ~0.5 µg/mL | ~0.8 µg/mL | – | – | – |
| B2 | – | – | – | – | – | – | – | – | – | – | – | – | – | ~0.02 µg/mL | ~0.03 µg/mL | – |
| B3 | 6.66 fold | – | 0.479 nM | 0.000216 s⁻¹ | 457000 M⁻¹ s⁻¹ | 6.37 fold | 0.265 nM | 7.98e-05 s⁻¹ | 310000 M⁻¹ s⁻¹ | – | – | – | – | ~0.03 µg/mL | ~0.04 µg/mL | ~0.1 µg/mL |
